Reference: the DeepSol protein solubility set

Assay: soluble on expression in E. coli; label from the status in PepcDB or PDB records

| Sequence | soluble on expression in E. coli |
| --- | --- |
| MGSDKIHHHHHHMRKDDVVIVTCAITGAIHTPSMSPYLPVTPDQIVEEAVKAAEAGAGMVHIHARDPKDGRPTTDVEVFRYICREIKKQSDVVINVTTGGGGTLGIPVEERAKVVPALKPEIATFNMGSMNFAIHPLLKKYKEFKYDWEPEYLEMTRDIVFRNTFKDLEALSRIFKENDTKPELECYDIGQIYNTAFMFHEGYLEPPLRLQFIHGILGGIGTAVEDVLFMKQTADRLIGRENYTWSLVGAGRFQMPLGTLAVIMGGDVRVGLEDSLYIERGKLAKSNAEQVEKMVRIVKELGKRPATPDEVREILGLKGKERVNF | not soluble |
| MYPDDSLTLHTDLYQINMMQVYFDQGIHNKKAVFEVYFRQQPFKNGYAVFAGLERIVNYLEDLRFSDSDIAYLESLGYHGAFLDYLRNFKLELTVRSAQEGDLVFANEPIVQVEGPLAQCQLVETALLNIVNYQTLVATKAARIRSVIEDEPLMEFGTRRAQEMDAAIWGTRAAVIGGANGTSNVRAGKLFDIPVLGTHAHALVQVYGNDYEAFKAYAATHKNCVFLVDTYDTLRIGVPAAIQVARELGDQINFMGVRIDSGDIAYISKKVRQQLDEAGFTEAKIYASNDLDENTILNLKMQKAKIDVWGVGTKLITAYDQPALGAVYKIVAIEDETGQMRNTIKLSNNAEKVSTPGKKQVWRITSREKGKSEGDYITYDGVDISDMTEIKMFHPTYTYIKKTVRNFDAVPLLVDIFKEGILVYNLPSLTDIQDYARKEFDKLWDEYKRVLNPQHYPVDLARDVWQDKMDLIDKMRKEALGEGEEE | not soluble |
| MRNAHAVEAMRVPHPVRGTVSLVEWHMARARNHINVLEENMTLLMEQAHANESLFYRLLHLQSRLVAADSLDEMLVRFHRWARDLGLAGATLRLFPDRWRLGAPSRYTHLALNRQAFEPLRIQRLGQSQHYLGPLNGPELLVVLEHHHHHH | soluble |
| HMSMYAVNAGIAKTTVQILVDHIAHSGWLDEAASAVLLDIVRTPISPELKPVGQDGNISQKTEDLVGPYELHDFFIYHFLHNEYKPSKIYYLAGVAFKGIYTKAEIKKWMMVFFRRFFAQQYKRNCMPDGPKVSCISLSPRGAWRMASDASSALWLDEIAKFETD | not soluble |
| MTVTLAGNPIEVGGHFPQVGEIVENFILVGNDLADVALNDFASKRKVLNIFPSIDTGVCATSVRKFNQQAAKLSNTIVLCISADLPFAQARFCGAEGIENAKTVSTFRNHALHSQLGVDIQTGPLAGLTSRAVIVLDEQNNVLHSQLVEEIKEEPNYEAALAVLA | soluble |
| MGSDKIHHHHHHMSDLDRATLLDATGVAKSFGAVRALTDASLHVGAGEVVALMGANGAGKSTFVKILTGALRPDAGRVLIRGEVARTGSPAQARRSGLVPVYQEPSLIPDLDVADNLRLGDTPSDAVLHWMNELGINGLRFDDMISDLPLATLRILDLARALASQPDVLLLDEMTAALPTNLVENVLRVVRAQADAGCGVIYISHRFTEIAELCDSATILRDGRTVGDLQIEPGVENRCVELMLGAKLSLDKRDAGALRQNTGVPRLRASQIAVAPTVSDVSFDLYPGEVLGVVALEGQGQDEVFNVLSGHQKPTGGALQVDGTSVSFSHPADAIAAGLSYVPGDRAEALLRERSVRENIALPFSARLRDWGPLKTRHERHRVDHAIEKLQIDTRAQGEVQRLSGGNQQKVTIGRWLAHGVRTLLLFDPTRGIDVRTKRQIYPLVRELAEQGAAVLFYTSELDEIPLACDRAIVIFNGRVVNVVNAADATEEVLMRAAYGLTDVSAAS | not soluble |
| MSARKLFYLGPQGTFTHQAAVNAAQELARFEPQGFDLMPMDDVPQILDAAQHGDGWGIVAWENNVEGYVVPNLDALIDAKDLVGFARVGVNVEFDAYVAQGADPAEARIATAHPHGLAQCKRFIAEHRLSTQPATSNAAACRDLIPGEIAFGPAICGELYDITRIGTAIQDYQGAATDFLVLSPRAE | not soluble |
| NRGIEFSGGRNYVVKFDQPVSSEAVRSALSSPLQEKVLVTSIGTEGTEVRISTNYKIQEESEETEAEITDKLYQSLKGFYTQQPTADQFLDNIISSQKVSPSMSSDITRGA | not soluble |
| RELIHFAHGNGFPSLCYKQLLEQLETRFDCCFIDKIGHDPDYPVGENWHNLVAEIIASIKRQAEQPVIAVGHSLGGVLSLLAAIEQPKLFKAVIMLDSPLIGAFKSSMVRLAKALGIIDRVTPAFRTKKRREHWQNYEQLISYLKTRDLFKTFTEECLNDYIKYGLQYKEDGYYLRFDRHVEYQIYRTIPHVIPRYKGKLIVPAALIYGDKSTVVDRMDIRYMKNHFNVKCFKTMGTHLFPMEHPKAVGKQVIEVIDAII | not soluble |
| MSVNSIYTDREEIDSEFEDEDFEKEGIATVERAMENNHDLDTALLELNTLRMSMNVTYHEVRIATITALLRRVYHFIATQTLGPKDAVVKVFNQWGLLFKRQAFDEEEYIDLMNIIMEKIVEQSFDKPDLILFSALVSLYDNDIIEEDVIYKWWDNVSTDPRYDEVKKLTVKWVEWLQNADEESSSEEE | soluble |
| MSNQLSPKPPVNPIVMGKIGSAYGIRGWLRVFSSTEDADSIFDYQPWFIQSKSGWQLVEIEGWKYHNQDLIIKVKGADDRDAANLLTNCEIVVDSSQLPDLGVGDYYWKDLIGCQVVTVTGYELGKIIDMMETGSNDVMVIKANLKDAFGVKERLVPFLTEQVVKRVDLSAQTIEVDWDPGFLEHHHHHH | soluble |
| MSKAAKKKSSKKRSGSEAAQFDQKTIQEFKEAFGIMDQNKDGIIDKSDLKDLYASMGQIAPDSQIDAMIKEASGPINFTVFLTLFGERLTGTDPEATIVGAFAMFDKKDCGKIKEDDLIKILQNKRGEPLDEDEVKAMYKGKPPIEGGEVDYKAFAHLITTGAQDELASA | not soluble |
| MPLKLTTYYQGSEIPDFPGTNTFHSKELFQIYEETPGYTPLLIMASEDGKPVARLLAAIRKSIRMFPPAFIKRCEIYGTGEYLTAEADKERIFGEMLEHLTTEALRNSFLIEFRNLENAMFGYKYFRSNRYFPVNWLRVRNSLHGIENAEQRFSPSRIRQIKKGLKNGAKVDEARTVEEIREFSNMLRHLYSSRIRKHFPNIIFFQHMDTRLIHSRQAKIFIVRYKDKIIGGSACIYSGNDAYLWFSGGMRKTYALQYPGILAVWKALQDAHQNGFRHMEFMDAGLPFKKHGYRDFVLRFGGKQSSTRRWFRFRWQWLNDLLIKIYV | not soluble |
| MGSDKIHHHHHHMLNAKLLKLPTAAQQHHHEHHQIVVGVRGQAELSIDGSGACLDTWKACLVPTEARHDYCGDQQNHVLVINVDPFCAALSTPLHSDYDKLMRLFEKPRTVQMDNRIQGLVQFAAGEFDRSPDNRALHQHLAASILHCMAERIVDRPPVSSNRNSLNPEDIRRYIVGNLHRKITVQDLAGVACLSVSRFHEIFRQVTGTTPHQFLLQTRLDQAVGLLSSTSLSVSEISYRTGFSSQSALTNALRKHRGITPSRLQLNEHVA | not soluble |
| MDRTTPWQQQPIRYSADLEKPSPREQADIEKIMAKLLKNNERAYDKYKHGLRDAHAKSHAILRGELIVNEGLPPELAQGLFAEPRTYPVIARLSSTSGVRRSDKTRGVRGLGLKVLGVQGEKILPDDSSTNQDFVMVTHEDFLFADAHAYAGLGMITASLLARLSDQALWLGSGLLDLVSKAGIKLPDNLMVFVAPNRPILGLEFFSSAPFRHGDHVAKYRFAPASENVKALSGQLLPRNPAPEQHRDMIAEFFADQTAEFDFSAQLCTDPVAMPIEDAGKNWDKSISPYVSVAKIVFGPQNPYSALRRAYGDDVLAFNSWRGLAEHRPLGSINRLKKTVYESSADYRHRVNRIDRHEPVDISELPDLEHHHHHH | soluble |
| MYTLSAGIWEKFFKKKDYYVVIVGLDNAGKTTFLEQTKSHFVKDYGVLNPSKITATVGLNTGNVELNNTCLHFWDLGGQESLRELWATYYDDANAMIFVVDATRSDLFPIVASQFKEVMANEIVQNIPVLVAVNKSEMEGAAAAAEVRMLLEDDNHRSDLAVLPVSALEGTNIERCVHWIVRSLASQPLYL | not soluble |
| SMGDREQLLQRARLAEQAERYDDMASAMKAVTELNEPLSNEDRNLLSVAYKNVVGARRSSWRVISSIEQKTMADGNEKKLEKVKAYREKIEKELETVCNDVLSLLDKFLIKNCNDFQYESKVFYLKMKGDYYRYLAEVASGEKKNSVVEASEAAYKEAFEISKEQMQPTHPIRLGLALNFSVFYYEIQNAPEQACLLAKQAFDDAIAELDTLNEDSYKDSTLIMQLLRDNLTLWTSDQQDEEAGEGN | soluble |
